Test results: US20150344570A1 (published 2015)

T1: human FcγRIIb extracellular domain with C-terminal His tag (human, UniProt P31994 43-217)
T1 construct: extracellular domain; also called FcgRIIb; 2b; not shown: His tag attached to the C terminus
T1 sequence (looked up): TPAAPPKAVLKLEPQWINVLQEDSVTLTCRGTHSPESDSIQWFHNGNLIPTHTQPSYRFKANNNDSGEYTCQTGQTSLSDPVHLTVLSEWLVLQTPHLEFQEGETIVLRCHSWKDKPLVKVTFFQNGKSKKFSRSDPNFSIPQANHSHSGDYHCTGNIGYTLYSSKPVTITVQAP


target: T1, human FcγRIIb extracellular domain with …; test: SPR (Biacore T100), antibody captured on antigen peptide chip, FcγRIIb as analyte; relative binding
Description: Analysis of interaction between objective antibody and the FcγR was carried out using Biacore T100 (GE Healthcare). HBS-EP+ (GE Healthcare) was used as the running buffer, and the measurement temperature was set to 25° C. Chips produced by immobilizing the antigen peptide by the amine coupling method to a Series S Sencor Chip CM5 (GE Healthcare), or alternatively, chips produced by allowing preliminarily biotinylated antigen peptides to interact with and immobilize onto a Series S Sensor Chip SA (certified) (GE Healthcare) were used. Antibodies of interest were captured onto an antigen peptide-immobilized chip, and allowed to interact to each FcγR diluted with running buffer. To regenerate and repeatedly use the chip, the antibodies captured on the chip were washed off by reacting 10 mM glycine-HCl, pH 1.5.

Binder	Ho/Con_2b	He/Con_2b
GpH7-A5/GpH7-B3 variant L328_03V/GpL16-k0 (He Ab) (antibody, human IgG1, kappa, Anti-glypican-3 IgG1; mutation only in the GpH7-B3-derived H chain; also called L328V heterodimerized antibody) heavy 1: not shown heavy 2: not shown light: DIVMTQSPLSLPVTPGEPASISCQASESLVHSNRNTYLHWYLQKPGQSPQLLIYKVSNRFSGVPDRFSGSGSGTDFTLKISRVEAEDVGVYYCSQNTHVPPTFGQGTKVEIERTVAAPSVFIFPPSDEQLKSGTASVVCLLNNFYPREAKVQWKVDNALQSGNSQESVTEQDSKDSTYSLSSTLTLSKADYEKHKVYACEVTHQGLSSPVTKSFNRGEC		126 % of control GpH7-A5/GpH7-B3/GpL16-k0 (=100)
GpH7-A5/GpH7-B3 variant L328_06M/GpL16-k0 (He Ab) (antibody, human IgG1, kappa, Anti-glypican-3 IgG1; mutation only in the GpH7-B3-derived H chain; also called L328M heterodimerized antibody) heavy 1: not shown heavy 2: not shown light: DIVMTQSPLSLPVTPGEPASISCQASESLVHSNRNTYLHWYLQKPGQSPQLLIYKVSNRFSGVPDRFSGSGSGTDFTLKISRVEAEDVGVYYCSQNTHVPPTFGQGTKVEIERTVAAPSVFIFPPSDEQLKSGTASVVCLLNNFYPREAKVQWKVDNALQSGNSQESVTEQDSKDSTYSLSSTLTLSKADYEKHKVYACEVTHQGLSSPVTKSFNRGEC		142 % of control GpH7-A5/GpH7-B3/GpL16-k0 (=100)
GpH7-A5/GpH7-B3 variant K334_15Y/GpL16-k0 (He Ab) (antibody, human IgG1, kappa, Anti-glypican-3 IgG1; mutation only in the GpH7-B3-derived H chain; also called K334Y heterodimerized antibody) heavy 1: not shown heavy 2: not shown light: DIVMTQSPLSLPVTPGEPASISCQASESLVHSNRNTYLHWYLQKPGQSPQLLIYKVSNRFSGVPDRFSGSGSGTDFTLKISRVEAEDVGVYYCSQNTHVPPTFGQGTKVEIERTVAAPSVFIFPPSDEQLKSGTASVVCLLNNFYPREAKVQWKVDNALQSGNSQESVTEQDSKDSTYSLSSTLTLSKADYEKHKVYACEVTHQGLSSPVTKSFNRGEC		109 % of control GpH7-A5/GpH7-B3/GpL16-k0 (=100)
GpH7-A5/GpH7-B3 variant L328_19Q/GpL16-k0 (He Ab) (antibody, human IgG1, kappa, Anti-glypican-3 IgG1; mutation only in the GpH7-B3-derived H chain; also called L328Q heterodimerized antibody) heavy 1: not shown heavy 2: not shown light: DIVMTQSPLSLPVTPGEPASISCQASESLVHSNRNTYLHWYLQKPGQSPQLLIYKVSNRFSGVPDRFSGSGSGTDFTLKISRVEAEDVGVYYCSQNTHVPPTFGQGTKVEIERTVAAPSVFIFPPSDEQLKSGTASVVCLLNNFYPREAKVQWKVDNALQSGNSQESVTEQDSKDSTYSLSSTLTLSKADYEKHKVYACEVTHQGLSSPVTKSFNRGEC		105 % of control GpH7-A5/GpH7-B3/GpL16-k0 (=100)
GpH7-A5/GpH7-B3 variant K334_19Q/GpL16-k0 (He Ab) (antibody, human IgG1, kappa, Anti-glypican-3 IgG1; mutation only in the GpH7-B3-derived H chain; also called K334Q heterodimerized antibody) heavy 1: not shown heavy 2: not shown light: DIVMTQSPLSLPVTPGEPASISCQASESLVHSNRNTYLHWYLQKPGQSPQLLIYKVSNRFSGVPDRFSGSGSGTDFTLKISRVEAEDVGVYYCSQNTHVPPTFGQGTKVEIERTVAAPSVFIFPPSDEQLKSGTASVVCLLNNFYPREAKVQWKVDNALQSGNSQESVTEQDSKDSTYSLSSTLTLSKADYEKHKVYACEVTHQGLSSPVTKSFNRGEC		109 % of control GpH7-A5/GpH7-B3/GpL16-k0 (=100)
GpH7-A5/GpH7-B3 variant K334_16H/GpL16-k0 (He Ab) (antibody, human IgG1, kappa, Anti-glypican-3 IgG1; mutation only in the GpH7-B3-derived H chain; also called K334H heterodimerized antibody) heavy 1: not shown heavy 2: not shown light: DIVMTQSPLSLPVTPGEPASISCQASESLVHSNRNTYLHWYLQKPGQSPQLLIYKVSNRFSGVPDRFSGSGSGTDFTLKISRVEAEDVGVYYCSQNTHVPPTFGQGTKVEIERTVAAPSVFIFPPSDEQLKSGTASVVCLLNNFYPREAKVQWKVDNALQSGNSQESVTEQDSKDSTYSLSSTLTLSKADYEKHKVYACEVTHQGLSSPVTKSFNRGEC		113 % of control GpH7-A5/GpH7-B3/GpL16-k0 (=100)

More lines, now with the values ahead:

Ho/Con_2b	He/Con_2b	Binder
116 % of control GpH7-B3/GpL16-k0 (=100)		GpH7-B3 variant S337_09D/GpL16-k0 (Ho Ab) (antibody, human IgG1, kappa, Anti-glypican-3 IgG1; mutation in both H chains; also called S337D homodimerized antibody) heavy: not shown light: DIVMTQSPLSLPVTPGEPASISCQASESLVHSNRNTYLHWYLQKPGQSPQLLIYKVSNRFSGVPDRFSGSGSGTDFTLKISRVEAEDVGVYYCSQNTHVPPTFGQGTKVEIERTVAAPSVFIFPPSDEQLKSGTASVVCLLNNFYPREAKVQWKVDNALQSGNSQESVTEQDSKDSTYSLSSTLTLSKADYEKHKVYACEVTHQGLSSPVTKSFNRGEC
124 % of control GpH7-B3/GpL16-k0 (=100)		GpH7-B3 variant Y300_19Q/GpL16-k0 (Ho Ab) (antibody, human IgG1, kappa, Anti-glypican-3 IgG1; mutation in both H chains; also called Y300Q homodimerized antibody) heavy: not shown light: DIVMTQSPLSLPVTPGEPASISCQASESLVHSNRNTYLHWYLQKPGQSPQLLIYKVSNRFSGVPDRFSGSGSGTDFTLKISRVEAEDVGVYYCSQNTHVPPTFGQGTKVEIERTVAAPSVFIFPPSDEQLKSGTASVVCLLNNFYPREAKVQWKVDNALQSGNSQESVTEQDSKDSTYSLSSTLTLSKADYEKHKVYACEVTHQGLSSPVTKSFNRGEC
	103 % of control GpH7-A5/GpH7-B3/GpL16-k0 (=100)	GpH7-A5/GpH7-B3 variant P271_08L/GpL16-k0 (He Ab) (antibody, human IgG1, kappa, Anti-glypican-3 IgG1; mutation only in the GpH7-B3-derived H chain; also called P271L heterodimerized antibody) heavy 1: not shown heavy 2: not shown light: DIVMTQSPLSLPVTPGEPASISCQASESLVHSNRNTYLHWYLQKPGQSPQLLIYKVSNRFSGVPDRFSGSGSGTDFTLKISRVEAEDVGVYYCSQNTHVPPTFGQGTKVEIERTVAAPSVFIFPPSDEQLKSGTASVVCLLNNFYPREAKVQWKVDNALQSGNSQESVTEQDSKDSTYSLSSTLTLSKADYEKHKVYACEVTHQGLSSPVTKSFNRGEC
109 % of control GpH7-B3/GpL16-k0 (=100)		GpH7-B3 variant S337_10E/GpL16-k0 (Ho Ab) (antibody, human IgG1, kappa, Anti-glypican-3 IgG1; mutation in both H chains; also called S337E homodimerized antibody) heavy: not shown light: DIVMTQSPLSLPVTPGEPASISCQASESLVHSNRNTYLHWYLQKPGQSPQLLIYKVSNRFSGVPDRFSGSGSGTDFTLKISRVEAEDVGVYYCSQNTHVPPTFGQGTKVEIERTVAAPSVFIFPPSDEQLKSGTASVVCLLNNFYPREAKVQWKVDNALQSGNSQESVTEQDSKDSTYSLSSTLTLSKADYEKHKVYACEVTHQGLSSPVTKSFNRGEC
